Results taken from publication PMC4896748, “Ensemble cryo-EM uncovers inchworm-like translocation of a viral IRES through the ribosome” (eLife, 2016).

Target: T1, S. cerevisiae elongation factor eEF2 (C-terminally His6-tagged), bound with GDP and sordarin (S. cerevisiae, UniProt P32324 1-842, diphthamide at 699)
T1 construct: elongation factor 2 (eEF2), S. cerevisiae; residue numbers as in S. cerevisiae eEF2 (H108, H583, H694, Diph699); Complex assembled with eEF2•GTP and sordarin; also called eukaryotic elongation factor 2; translocase; source: yeast TKY675 cells, purified (Ni-NTA, SP Sepharose cation exchange, Superdex 200)
T1 sequence (P32324 whole entry): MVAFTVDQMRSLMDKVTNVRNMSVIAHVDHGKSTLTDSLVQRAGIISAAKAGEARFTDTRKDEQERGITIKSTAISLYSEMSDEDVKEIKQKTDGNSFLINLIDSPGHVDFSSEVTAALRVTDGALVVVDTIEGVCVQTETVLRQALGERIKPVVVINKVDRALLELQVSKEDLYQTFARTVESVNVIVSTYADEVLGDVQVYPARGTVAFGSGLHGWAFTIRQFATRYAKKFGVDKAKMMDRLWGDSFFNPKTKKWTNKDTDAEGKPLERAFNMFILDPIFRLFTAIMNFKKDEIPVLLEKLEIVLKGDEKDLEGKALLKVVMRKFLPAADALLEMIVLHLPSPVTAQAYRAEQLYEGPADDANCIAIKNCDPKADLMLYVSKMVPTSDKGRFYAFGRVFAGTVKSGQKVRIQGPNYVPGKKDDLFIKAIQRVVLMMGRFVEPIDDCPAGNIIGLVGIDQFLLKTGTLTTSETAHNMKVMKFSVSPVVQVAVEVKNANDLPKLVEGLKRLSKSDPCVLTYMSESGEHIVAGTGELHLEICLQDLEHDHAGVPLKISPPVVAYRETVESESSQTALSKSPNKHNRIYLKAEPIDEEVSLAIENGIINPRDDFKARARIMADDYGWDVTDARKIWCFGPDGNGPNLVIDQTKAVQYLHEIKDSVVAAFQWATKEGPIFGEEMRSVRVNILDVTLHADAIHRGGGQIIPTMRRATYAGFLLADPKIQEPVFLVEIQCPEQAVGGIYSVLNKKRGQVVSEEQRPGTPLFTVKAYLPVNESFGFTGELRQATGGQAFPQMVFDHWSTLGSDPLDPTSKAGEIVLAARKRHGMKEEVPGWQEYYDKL
Experiment: cryo-EM structure; 80S•TSV IRES•eEF2•GDP•sordarin complex, five structures (I-V) from one specimen; assembled from 40S (0.8 uM), 60S (0.8 uM), TSV IRES RNA (8 uM), eEF2 (5 uM), sordarin (800 uM), GTP (1 mM); 30°C; 45 mM HEPES·KOH pH 7.5, 10 mM MgCl2, 100 mM KCl, 2.5 mM spermine, 2 mM β-mercaptoethanol
Settings: both partners purified

B1: ribosomal protein P0 of the S. cerevisiae 60S subunit (P stalk) (natural protein, UniProt P05317 1-312, looked up)
chain: MGGIREKKAEYFAKLREYLEEYKSLFVVGVDNVSSQQMHEVRKELRGRAVVLMGKNTMVRRAIRGFLSDLPDFEKLLPFVKGNVGFVFTNEPLTEIKNVIVSNRVAAPARAGAVAPEDIWVRAVNTGMEPGKTSFFQALGVPTKIARGTIEIVSDVKVVDAGNKVGQSEASLLNLLNISPFTFGLTVVQVYDNGQVFPSSILDITDEELVSHFVSAVSTIASISLAIGYPTLPSVGHTLINNYKDLLAVAIAASYHYPEIEDLVDRIENPEKYAAAAPAATSAASGDAAPAEEAAAEEEEESDDDMGFGLFD
notes: 60S acidic ribosomal protein P0 (uL10), S. cerevisiae; part of the P stalk of the 60S subunit; Stood in the assay as a subunit of the 60S ribosomal subunit within the 80S ribosome, not as an isolated protein; also called eukaryote-specific protein P0; source: endogenous, in 60S subunits from 80S ribosomes purified from S. cerevisiae strain W303
- binding result: binds
